We go through 20 sequences from the DeepSol protein solubility set.

This data set can be described thus: soluble on expression in E. coli; label from the status in PepcDB or PDB records.
For “MGSSHHHHHHSSGLVPRGSHMPLYYRSIIEEHMAVRKHVGIFDVSHMGDVTVSGKDASAFLDHMFPTKVSNLKNGECVYTAFLNDSGLMIDDTIVYRMGEDSYFFVPNAGTTEKIYRWVSDHSAGYSVKIENVSNRISSIALQGPESEEVLNELGFSYPGYFKFQYVSGKYMNAITGKDQIIISGTGYTGEKGVEFIIPNEHAVELWKKLLEAINKRNGLPAGLGARDTLRMEKGMLLSGHDFNEDRDPYEASVSFIVNNDEDFVGKKNLEIRRRSDHEIFRGFVLSDGIPRNGNPIKAGGKRVGTVTSGTISPVLNKGIALGYIDKAYSKENTEVMIEIRSVDHKAVVTKPRIVK”, the “soluble on expression in E. coli” value was “soluble”.
“MGSSHHHHHHSSGLVPRGSHMTPDDIAGFYAKRADLDLDNYIELDFDFECAGDPHEAAAHLCSEQSTAQWRRVGFDEDFRPRFAAKVLELSAEPRPSGFSVPVECAARGPVHACRVTIAHPHGNFGAKIPNLLSAVCGEGVFFSPGIPLIRLQDIRFPEPYLAAFDGPRFGIAGVRERLQAFDRPIFFGVIKPNIGLPPQPFAELGYQSWTGGLDIAKDDEMLADVDWCPLAERAALLGDACRRASAETGVPKIYLANITDEVDRLTELHDVAVANGAGALLINAMPVGLSAVRMLRKHATVPLIAHFPFIAAFSRLANYGIHSRVMTRLQRLAGFDVVIMPGFGPRMMTPEHEVLDCIRACLEPMGPIKPCLPVPGGSDSAATLENVYRKVGSADFGFVPGRGVFGHPMGPAAGATSIRQAWDAIAAGIPVPDHAASHPELAAALRAFGGR”: the “soluble on expression in E. coli” value was “soluble”.
Turning to “MGSSHHHHHHSSGLVPRGSHMYLINQNGWIEVICGSMFSGKSEELIRRVRRTQFAKQHAIVFKPCIDNRYSEEDVVSHNGLKVKAVPVSASKDIFKHITEEMDVIAIDEVQFFDGDIVEVVQVLANRGYRVIVAGLDQDFRGLPFGQVPQLMAIAEHVTKLQAVCSACGSPASRTQRLIDGEPAAFDDPIILVGASESYEPRCRHCHAVPTKQR”, the “soluble on expression in E. coli” value is “soluble”.
The value for “MGSSHHHHHHSSGLVPRGSSTYRDIVVKKEDGFTQIVLSTRSTEKNALNTEVIKEIVNALNSAAADDSKLVLFSAAGSVFCCGLDFGYFVKHLRNNRNTASLEMVDTIKNFVNTFIQFKKPIVVSVNGPAIGLGASILPLCDLVWANEKAWFQTPYTTFGQSPDGCSSITFPKMMGKASANEMLIAGRKLTAREACAKGLVSQVFLTGTFTQEVMIQIKELASYNPIVLEECKALVRCNIKLELEQANERECEVLRKIWSSAQGIESMLKIPLLGYKAAFPPRKTQNDQRW” was “soluble”; that for “MGSSHHHHHHSSGTIEGRMIRLTDNRPIGFIDSGVGGLTVVKEALKQLPNENILFVGDTARCPYGPRPAEQVIQYTWEMTDYLVEQGIKMLVIACNTATAVALEEIKAALSIPVIGVILPGTRAAVKKTQNKQVGIIGTIGTVKSQAYEKALKEKVPELTVTSLACPKFVSVVESNEYHSSVAKKIVAETLAPLTTKKIDTLILGCTHYPLLRPIIQNVMGENVQLIDSGAETVGEVSMLLDYFNLSNSPQNGRTLCQFYTTGSAKLFEEIAEDWLGIGHLNVEHIELGGK” was “soluble”; that for “MGSVEIPTKVLTNTSSQLKMPVVGMGSAPDFTCKKDTKDAIIEAIKQGYRHFDTAAAYGSEQALGEALKEAIELGLVTRDDLFVTSKLWVTENHPHLVIPALQKSLKTLQLDYLDLYLIHWPLSSQPGKFSFPIDVADLLPFDVKGVWESMEESLKLGLTKAIGVSNFSVKKLENLLSVATVLPAVNQVEMNLAWQQKKLREFCNAHGIVLTAFSPVRKGASRGPNEVMENDMLKEIADAHGKSVAQISLRWLYEQGVTFVPKSYDKERMNQNLRIFDWSLTKEDHEKIAQIKQNRLIPGPTKPGLNDLYDD” was “soluble”.
Turning to “MGTHSGHERNGESARGGALQRLERRLAAAWAEQDAYQIEQLAGMIYDRLVRSDPSAAATVLEQNAHRLAVAGKPAEAAELATRLIRHWRELEQRPFYLARLQQMVLEPLQALSGVEAARARTMVLEAVLAWKRASATVDTEEAAPAELAPVQDALVDAYVLCGEWARAQYQVVCRGGPAERDLAFIDEQLGPHLANDVERMLARTRLVLFYVLAGNLKAGRALVEEIQRKHPTAPMTNFVVILMQVLERARNVDSSKRRLLRNFCDDLKRVYHWAFSLDPELDAMLDDVLKAQGL”, the “soluble on expression in E. coli” value is reported as “not soluble”.
The value for “MGTKIIGTGVYLPKNVLTNFDLEKIVDTSDEWITTRTGIKERRIAKEETITYMATQAAKEALREANLSPEELDLIILATLTPQKRFPSTACLVQAQLKAKGVYAFDISAACSGFIYALDIADSFIKSGKAKNVLVIGAEKLSEAVDWEDRSTCVLFGDGAGAVVVTRSEDKSDILATRMYAEGSLEELLHADNCGYIRMKGRELFKVAVRSMEEVCREVLEKAGVKPEEVSLVIPHQANVRIINALAEKLNIPKEKVFVNIQKYGNTSAASIPIALHEAIKEGKVKRGDLILMTAMGGGLTWGAVLLRY” was “soluble”.
The value for “MGTKLSVSLEGASTPETAPRVDRPPTFDPQYGFERPRKVREMKATWEEMEQWKLKPAQRDYCAHHLISLMKCQTQNAPFAGHACDGERGAWDKCEYDDHIMRIKEFERERRLLQRQARKEATA” was “not soluble”; that for “MGTRCAVTPELRFVLAFPDVYEVGMSHLGLQILYGVLNTLDGVAAERAYAPWPDREAQLRAEGIPLATLESGTSLDRADIVGFTLQYELSYTNILNMLDLAGIPLLASERDERHPLIIGGGPCACNPEPLADFFDAFLLGDGEEAVIEIAEAFRAWKRAGGARSGLLERLAGIAGVYVPSFFAVRYGDNNRIAAVEPLRPDYGPVKRRFLAELEPAAYPTAPVVPFLKTIHDRVSVEISRGCTRGCRFCQAGYLYRPVRERSPEKILALVEETLRATGYDEISLLSLSTGDYGCLTPLLTELMARYASERIAVSLPSMRVGSLNDELVEAIRTVRKTGFTLAPEAGSERLRRVINKGISEEDLLRNAFEAYSHGWRLIKLYFMIGLPGETEEDLHGIVELARKVKMEGRRAGSGGEVNVSVSTFVPKAHTPFQWEPQIPVGEILEKQGLLRRELRARKLVFKWHDAPLSFMEGVFARGDRRLGAALRRAWELGCRFDGWGDRFDEAAWRTAFEETGIDPAFYHRRREPDEVLPWGHLDFGVTREFLLRELELSRQGAATEDCRTGRCTGCGVCDFSQVRLRLADDGLEHHHHHH” was “not soluble”; that for “MGTRRDVRQEMLDDVQKKLMSLANSSEGKVDKVLMRNLFIGHFHTPKNQRHEVLRLMGSILGVRREEMEQLFHDDQGSVTRWMTGWLGGGSKSVPNTPLRPNQQSVVNSSFSELFVKFLETESHPSIPPPKLSVHDMKPLDSPGRRKRDTNAPESFKDTAESRSGRRTDVNPFLAPRSAAVPLINPAGLGPGGPGIFFLEHHHHHH” was “not soluble”.
In the case of “MGTTSSQSKTLYQKLYDAHIVHEAPNETPLLYIDRHLVHEVTSPQAFDGLRAMGRPVRQPGKTFATMDHNVSTQTKDINASGEMARIQMQELIKNCAEFGVSLYDLNHPFQGIVHVIGPEQGMTLPGMTIVCGDSHTATHGAFGSLAFGIGTSEVEHVLATQTLKQGRAKTMRIEVNGTVGAGITAKDIVLAIIGKTGSAGGTGHVVEFCGSAIEALSMEGRMTLCNMAIEMGAKAGLVAPDDTTFAYLKGRQFAPTGEQWEQGVAYWRTLKSDADAQFDTIVTLDAADIAPQVTWGTNPGQVIAVNQIIPAPESFSDPVERASAEKALAYMDLRPGIKLTEVAIDKVFIGSCTNSRIEDLRAAAAIAQGRKVAKGVQAIVVPGSGPVKAQAEAEGLDKIFIAAGFEWRLPGCSMCLAMNNDRLEPGERCASTSNRNFEGRQGRGGRTHLVSPAMAAAAAVSGHFADVRELSATTH”, the “soluble on expression in E. coli” value was “not soluble”.
Regarding “MGVALAAMCLMSAQAQRRNEIQVPNLNGYTTLKCDFHMHSVFSDGLVWPTVRVDEAYREGLDAISLTEHIEYRPHKKDIIADHNRSYELSQKQAKKLGILLIRGSEITRSMPPGHFNAIFLNDSNPLEQKAYKDAFNEAKKQGAFIFWNHPGWARQQPDSTLWWPEHTQLYNDGCMHGIEVANGGLFMPEAIQWCLDKNLTMIGTSDIHQPIQTDYDFSKGEHRTMTFVFAKERSPEGIREALDNRRTAVYYRELVIGREEILRPFFEKCVDIKEVKRTEKEVTFSVMNATDLVLKLKKTAHDPSLVYFREMTLKPHTQHTISVKFDNGIKGGDCNFEVTNFIVAPDKGLDYTIKL”, the “soluble on expression in E. coli” value was “not soluble”.
In the case of “MGWCITVVHNTKWKAPPDTHIKCNYDAGFNVQNLDSTARWIIRNHDGIAQHWGSLQLDNTSTPLEAETKALLAALQQTWIRGYLRVIMEGDCETLTNLVSGSSSHNHLANLLDDIRIWAKKFSNVQFSFVRRGGNKVAHELAKLGCNSTCFYSDSCTLPIWLHQHYCNDFG”, the “soluble on expression in E. coli” value is given as “soluble”.
On to “MGYNTIPAGKDLPNDIYVAIEIPANASPIKYEIDKDMDALLVDRFMATPMFYPANYGYINNTLADDGDALDVLVITPYPVAPGSVIRARPVGVLKMSDEAGGDEKLLAVPHEKLTQLYNDIHDIDDVPQLLKDQIVHFFEHYKDLEKGKWVKVEGWENADAARAAIVKSAAAYKG”, for which the “soluble on expression in E. coli” value was “soluble”.
For “MHDAATSMPPQAPSTWADYLAGYRWRGQGEGCSAATVHRLEAARRPTLFVKQEVLSAHAELPAEIARLRWLHGAGIDCPQVLNETQSDGRQWLLMSAMPGDTLSALAQRDELEPERLVRLVAAALRRLHDLDPAACPFDHRLERRLDTVRQRVEAGLVDEADFDDDHRGRSATELYRLLLDRRPAVEDLVVAHGDACLPNLLAEGRRFSGFIDCGRLGVADRHQDLALAARDIEAELGAAWAEAFLVEYGGDIDGERLAYFRLLDEFF”, the “soluble on expression in E. coli” value is recorded as “soluble”.
The value for “MHEPMKTLKNIHAEIRICQKFPKSTVQKRFSEFEELIKAASKNARNWKPISSVELFQGDSSLNELFEKLVIGTCELRDGELFENVNDLTINPSNIHVYKLHKDGPLSQNIGDDDGDESIIGSQLWQLPCVEFDSIWENLIYDSNLKNEVMSYVAALARLSEKHVNTKIINVNRLILLTGPPGTGKTSLCKGLAQHLSIRMNDKYSKSVMLEINSHSLFSKWFSESGKLVQKMFDQIDELAEDEKCMVFVLIDEVESLGMCRESSSSRSEPSDAIRAVNALLTQIDRIRRRDNVLILCTSNLESTLDKALVDRADIVKNVGQPSDFARYSMLKSSIMELARIGVVIDNEVHTDYWPQDICDTKAPRNEFTEILFKIAQEARGLSGRAISMLPTLVYSKSPEETITLPNCMNLFLEAVKERLSRNN” was “not soluble”; that for “MHERHRFWQRALRLLSLGVPREASSALFGHDHSLQQETWLRSLQKEKQHIIDWHDRLTDIPFVIIDMETTGFSPEQGDEILAMAAAKTVGGVVTDAYMTLVKPEKPIPEHISALTGIEAKDVVFAPPLAEALRTFVPFIAAGVLIGYHIGHDLAFLRHALWRHYRQKWSGRFVDLQPMMTLIGHSCPTFDDALACYGICCPRRHTADGDVEAMAKLWAILLDEFRQRGIDTLHDLYAALSRC” was “not soluble”.
As to “MHGKDPFSDFREFINTMESRVQELGKAYGVEHLAGPQGFAVRYLFENQDKEIFIKDIEKKLSISKSVASNLVKRMEKNGFVELVTSDKDKRYKYVHLTDLGKKKAQDVGHFREAIHGQLLDGISKEDAETAFRVFHQIRKNLEKNKELEHHHHHH”, the “soluble on expression in E. coli” value is given as “soluble”.
Regarding “MHHHHHHSSGRENLYFQGSVFGVPLTVNVQRTGQPLPQSIQQAMRYLRNHCLDQVGLFRKSGVKSRIQALRQMNEGAIDCVNYEGQSAYDVADMLKQYFRDLPEPLMTNKLSETFLQIYQYVPKDQRLQAIKAAIMLLPDENREVLQTLLYFLSDVTAAVKENQMTPTNLAVCLAPSLFHLNTLKRENSSPRVMQRKQSLGKPDQKDLNENLAATQGLAHMIAECKKL”, the “soluble on expression in E. coli” value is recorded as “soluble”.
